Our source for the protein stability index values is the supplement of paper PMC10567573.

This series can be described thus: protein stability index of a GFP-peptide fusion (GPS, HEK-293T) (PSI 1-6); higher = more stable. The following applies: c terminus: a fixed tail appended.

± gives the standard deviation.
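Note: 24-mer peptide tiles fused after GFP, lentivirally expressed, FACS-sorted into six equal bins by GFP/DsRed ratio, decoded by Illumina sequencing, PSI is the read-weighted mean bin number.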

Regarding QRTHTGEKPYGCIDCGKAFSQKSC [ZNF649], the protein stability index is, setting by setting: (treatment: DMSO) 3.47 ± 0.27; (treatment: MLN4924 1 uM, 8 h) 3.87 ± 0.23.

For QSGATISMPCSTDKENGENVGLES [SASS6], the protein stability index is, setting by setting: (treatment: DMSO) 5.55 ± 0.22; (treatment: MLN4924 1 uM, 8 h) 5.43 ± 0.27.

With QSQLICILKRRSDEALERCQILEL [CCDC89], the protein stability index runs as follows: (treatment: DMSO) 2.52 ± 0.14; (treatment: MLN4924 1 uM, 8 h) 2.04 ± 0.44.

Consider QTEKTTRVRTVLNEKQLHTLRTCY [ISL2], for which the protein stability index came out at 2.66 ± 0.24 (treatment: DMSO) and 2.8 ± 0.33 (treatment: MLN4924 1 uM, 8 h).

As to QTMLSHYRPFYVNKGNGIGSNEAP [TRIM29], the protein stability index reads like this: (treatment: DMSO) 2.97 ± 0.27; (treatment: MLN4924 1 uM, 8 h) 3.17 ± 0.2.

As to QTWNNSTWSNQTQNIQSWSNHSWN [NANOGP8], the protein stability index reads like this: (treatment: DMSO) 2.36 ± 0.24; (treatment: MLN4924 1 uM, 8 h) 2.46 ± 0.28.

Take QTYQPPWKALSEFALQSDLDQPAF [ISL2]: the protein stability index (treatment: DMSO) stood at 2.96 ± 0.28 and the protein stability index (treatment: MLN4924 1 uM, 8 h) came out at 3.04 ± 0.21.

QVLEMKNQQIHEQEKKILELEKLA [MTUS2] returned a protein stability index (treatment: DMSO) of 4.68 ± 0.31 and a protein stability index (treatment: MLN4924 1 uM, 8 h) of 4.62 ± 0.45.

On to QYQTVRYDILPLSPVSRNRLAQVK [CTDNEP1], for which the protein stability index runs as follows: (treatment: DMSO) 3.02 ± 0.19; (treatment: MLN4924 1 uM, 8 h) 3.04 ± 0.29.

On to RAEPYPTSRFGSQCMQPNNIMGIE [NR2F2], for which the protein stability index stood at 2.84 ± 0.15 (treatment: DMSO) and 2.81 ± 0.18 (treatment: MLN4924 1 uM, 8 h).

On to RAVIAWMEKIPFVLGGNLQGGELV [CPXM2], for which the protein stability index (treatment: MLN4924 1 uM, 8 h) was 2.36 ± 0.63.

Turning to RDPAAGAAPFRFVARPVRFPREHQ [ZNF511], the protein stability index came to 2.61 ± 0.72 (treatment: DMSO) and 3.23 ± 0.68 (treatment: MLN4924 1 uM, 8 h).

As to RDTRDYAPPPRDYTYRDYGHSSSR [RBMX], the protein stability index turned out to be 4.01 ± 0.14 (treatment: DMSO) and 3.65 ± 0.77 (treatment: MLN4924 1 uM, 8 h).

Turning to REETPRMPSWASARDRQPSDFKTD [ELOA2], the protein stability index turned out to be 4.96 ± 0.18 (treatment: DMSO) and 5.03 ± 0.38 (treatment: MLN4924 1 uM, 8 h).

Consider REKEDYLHLKRQPKRRWLFWNSPS [RHOBTB2], for which the protein stability index turned out to be 2.42 ± 0.23 (treatment: DMSO) and 2.56 ± 0.18 (treatment: MLN4924 1 uM, 8 h).

Sequence RELLMNHRRGLGVDSKPELQRVLE [FAM107A] yielded a protein stability index (treatment: DMSO) of 3.95 ± 0.18 and a protein stability index (treatment: MLN4924 1 uM, 8 h) of 4.09 ± 0.14.

As to RERNMAPDLRQDFNMMEQKKRVSM [ADD1], the protein stability index reads like this: (treatment: DMSO) 4.53 ± 0.11; (treatment: MLN4924 1 uM, 8 h) 4.5 ± 0.092.

Regarding RFEEGGRRKCGQYWPLEKDSRIRF [PTPN9], the protein stability index runs as follows: (treatment: DMSO) 3.04 ± 0.36; (treatment: MLN4924 1 uM, 8 h) 2.88 ± 0.33.

Consider RGEALGLVGAQAPATEEQEAASSS [MAGEA3], for which the protein stability index was found to be 5.61 ± 0.27 (treatment: DMSO) and 5.62 ± 0.1 (treatment: MLN4924 1 uM, 8 h).

Consider RGFAFVTFESPADAKDAARDMNGK [RBMX], for which the protein stability index runs as follows: (treatment: DMSO) 4.12 ± 0.16; (treatment: MLN4924 1 uM, 8 h) 4.19 ± 0.26.

For RHAEQQALRLEVRAGPDSAGIALY [CARM1], the protein stability index worked out at 2.54 ± 0.43 (treatment: DMSO) and 2.81 ± 0.7 (treatment: MLN4924 1 uM, 8 h).

As to RHCPELAEMSRVSIRILDELVLPF [HNF4A], the protein stability index amounted to 2.12 ± 0.13 (treatment: DMSO) and 2.31 ± 0.38 (treatment: MLN4924 1 uM, 8 h).

Consider RHQKIHSGEKPYKCSDCGKAFLTK [ZNF649], for which the protein stability index by setting is: (treatment: DMSO) 3.07 ± 0.069; (treatment: MLN4924 1 uM, 8 h) 3.25 ± 0.31.

Turning to RHSYQVYRQPIPVQELVLEDLQDG [NET1], the protein stability index turned out to be 4.38 ± 0.083 (treatment: DMSO) and 4.24 ± 0.24 (treatment: MLN4924 1 uM, 8 h).

Sequence RIYRMIKLGLGIDEDEVAAEEPNA [HSP90AB1] had a protein stability index (treatment: DMSO) of 2.95 ± 0.24 and a protein stability index (treatment: MLN4924 1 uM, 8 h) of 3.19 ± 0.38.

RKTHVLLGRSHDTVQEAATSRRAR [MFSD9] had a protein stability index (treatment: DMSO) of 4.64 ± 0.41 and a protein stability index (treatment: MLN4924 1 uM, 8 h) of 4.73 ± 0.27.

For the sequence RLAAIAQEKDQEMERLRELQRASI [FBF1], the protein stability index by setting is: (treatment: DMSO) 4.34 ± 0.17; (treatment: MLN4924 1 uM, 8 h) 4.43 ± 0.22.

The sequence RLDFFEKPDYEYLRTLFTDLFEKK [CSNK1G1] showed a protein stability index (treatment: DMSO) of 2.54 ± 0.38 and a protein stability index (treatment: MLN4924 1 uM, 8 h) of 2.77 ± 0.41.

As to RLNKLRLESEGSPETLTNLRKGYL [HACD3], the protein stability index reads like this: (treatment: DMSO) 3.25 ± 0.23; (treatment: MLN4924 1 uM, 8 h) 3.35 ± 0.33.

The sequence RLQGLEADCVRGPDGVCLSGGRGP [PBXIP1] yielded a protein stability index (treatment: DMSO) of 4.4 ± 0.082 and a protein stability index (treatment: MLN4924 1 uM, 8 h) of 4.24 ± 0.32.

As for RNRKLKCTFSLTHPANRSCRETGS [SLC22A15], the protein stability index is, setting by setting: (treatment: DMSO) 3.37 ± 0.16; (treatment: MLN4924 1 uM, 8 h) 3.44 ± 0.23.

In the case of RNRPSFDAILYYYQSGGRLKRPVN [KCNA4], the protein stability index reads like this: (treatment: DMSO) 2.08 ± 0.27; (treatment: MLN4924 1 uM, 8 h) 2.42 ± 0.5.

For RPATEAELLTCHSAEYVGHLRATE [HDAC6], the protein stability index (treatment: DMSO) is 4.1 ± 0.2 and the protein stability index (treatment: MLN4924 1 uM, 8 h) came to 3.85 ± 0.19.

For RPDKALSEGDLKNAIRVHHALATR [PSD2], the protein stability index turned out to be 4.07 ± 0.1 (treatment: DMSO) and 4.31 ± 0.3 (treatment: MLN4924 1 uM, 8 h).

As for RPSQYRPDGLRSGDGVPPRSLQDG [LCOR], the protein stability index is, setting by setting: (treatment: DMSO) 4.83 ± 0.091; (treatment: MLN4924 1 uM, 8 h) 4.85 ± 0.17.

Consider RPTSCWQLDWDELETNQQHFHALC [M1AP], for which the protein stability index runs as follows: (treatment: DMSO) 2.39 ± 0.21; (treatment: MLN4924 1 uM, 8 h) 2.77 ± 0.38.
